Test results from the RNAGym collection of RNA variant scans (doi:10.7554/elife.80360).

B1: CPEB3 Ribozyme (parent)
chain: GGGGGCCACAGCAGAAGCGUUCACGUCGCGGCCCCUGUCAGAUUCUGGUGAAUCUGCGAAUUCUGCUGU

Variants of: B1
Assay: self-cleavage, relative activity (ratio to wild type); higher = more cleavage; co-transcriptional

Variant	self-cleavage
GGGGGCCACAGCAGAAGCGUUCCCGUCGCGGCCCCUGUCAGAUUCUGGUGAAUCUGCGAAUUGUGCUGU	0.573
GGGGGCCACAGCAGAAGCGUUCCCGUCGCGGCCCCUGUCAGAUUCUGGUGAAUCUGCGAAUUAUGCUGU	0.738
GGGGGCCACAGCAGAAGCGUUCGCGUCGCGGCCCCUGUCAGAUUCUGGUGAUUCUGCGAAUUCUGCUGU	0.933
GGGGGCCACAGCAGAAGCGUUCGCGUCGCGGCCCCUGUCAGAUUCUGGUGAGUCUGCGAAUUCUGCUGU	1.02
GGGGGCCACAGCAGAAGCGUUCGCGUCGCGGCCCCUGUCAGAUUCUGGUGACUCUGCGAAUUCUGCUGU	0.935
GGGGGCCACAGCAGAAGCGUUCCCGUCCCGGCCCCUGUCAGAUUCUGGUGAAUCUGCGAAUUCUGCUGU	0.183
GGGGGCCACAGCAGAAGCGUUCCCGUCACGGCCCCUGUCAGAUUCUGGUGAAUCUGCGAAUUCUGCUGU	0.206
GGGGGCCACAGCAGAAGCGUUCGCGUCGCGGCCCCUGUCAGAUUCUGGUGAAUCUGCGAGUUCUGCUGU	0.866
GGGGGCCACAGCAGAAGCGUUCGCGUCGCGGCCCCUGUCAGAUUCUGGUGAAUCUGCGACUUCUGCUGU	0.249
GGGGGCCACAGCAGAAGCGUUCGCGUCGCGGCCCCUGUCAGAUUCUGGUGAAUCUGCGAUUUCUGCUGU	0.385
GGGGGCCACAGCAGAAGCGUUCGCGUCGCGGCUCCUGUCAGAUUCUGGUGAAUCUGCGAAUUCUGCUGU	0.939
GGGGGCCACAGCAGAAGCGUUCGCGUCGCGGCACCUGUCAGAUUCUGGUGAAUCUGCGAAUUCUGCUGU	0.679
GGGGGCCACAGCAGAAGCGUUCGCGUCGCGGCGCCUGUCAGAUUCUGGUGAAUCUGCGAAUUCUGCUGU	0.262
GGGGGCCACAGCAGAAGCGUUCCCGUCGCGGCCCCUGUCAGAUUCUGGUGAAUCUGCGAAUUCUGCUCU	0.977
GGGGGCCACAGCAGAAGCGUUCCCGUCGCGGCCCCUGUCAGAUUCUGGUGAAUCUGCGAAUUCUGCUUU	0.995
GGGGGCCACAGCAGAAGCGUUCCCGGCGCGGCCCCUGUCAGAUUCUGGUGAAUCUGCGAAUUCUGCUGU	0.749
GGGGGCCACAGCAGAAGCGUUCCCGUCGCGGCCCCUGUCAGAUUCUGGUGAAUCUGCGAAUUCUGCUGC	1.04
GGGGGCCACAGCAGAAGCGUUCCCGUCGCGGCCCCUGUCAGAUUCUGGUGAAUCUGCGAAUUCUGCUGA	0.959
GGGGGCCACAGCAGAAGCGUUCCCAUCGCGGCCCCUGUCAGAUUCUGGUGAAUCUGCGAAUUCUGCUGU	0.203
GGGGGCCACAGCAGAAGCGUUCCCGUCGCGGCCCCUGUCAGAUUCUGGUGAAUCUGCGAAAUCUGCUGU	0.832
GGGGGCCACAGCAGAAGCGUUCCCGUCGCGGCCCCUGUCAGAUUCUGGUGAAUCUGCGAAGUCUGCUGU	0.855
GGGGGCCACAGCAGAAGCGUUCGCGUCGCGGCCCCUGUCAGAUUCUGGUGAAUCUGCGAAUUCUGCUGU	0.984
GGGGGCCACAGCAGAAGCGUUCCCGUCGCGGCCCCUAUCAGAUUCUGGUGAAUCUGCGAAUUCUGCUGU	0.3
GGGGGCCACAGCAGAAGCGUUCCCGUCGCGGCCCCUCUCAGAUUCUGGUGAAUCUGCGAAUUCUGCUGU	0.254
GGGGGCCACAGCAGAAGCGUUCGUGUCGCGGCCCCUGUCAGAUUCUGGUGAAUCUGCGAAUUCUGCUGU	0.833
GGGGGCCACAGCAGAAGCGUUCGGGUCGCGGCCCCUGUCAGAUUCUGGUGAAUCUGCGAAUUCUGCUGU	0.36

Variant	self-cleavage
GGGGGCCACAGCAGAAGCGUUCGAGUCGCGGCCCCUGUCAGAUUCUGGUGAAUCUGCGAAUUCUGCUGU	0.711
GGGGGCCACAGCAGAAGCGUUCCCGUCGCGGCCCCUGUCAGAAUCUGGUGAAUCUGCGAAUUCUGCUGU	0.771
GGGGGCCACAGCAGAAGCGUUCCCGUCGCGGCCCCUGUCAGAGUCUGGUGAAUCUGCGAAUUCUGCUGU	0.82
GGGGGCCACAGCAGAAGCGUUCCCGUCGCGGCCCCUGUCAGAUUCUGGUGAAUCCGCGAAUUCUGCUGU	0.891
GGGGGCCACAGCAGAAGCGUUCCCGUCGCGGCCCCUGUCAGAUUCAGGUGAAUCUGCGAAUUCUGCUGU	0.923
GGGGGCCACAGCAGAAGCGUUCCCGUCGCGGCCCCUGUCAGAUUCUGGUGAAUCUCCGAAUUCUGCUGU	0.762
GGGGGCCACAGCAGAAGCGUUCCCGUCGCGGCCCCUGUCAGAUUCUGGUGAAUCUACGAAUUCUGCUGU	0.852
GGGGGCCACAGCAGAAGCGUUCGCGUCGCGGCCCAUGUCAGAUUCUGGUGAAUCUGCGAAUUCUGCUGU	0.215
GGGGGCCACAGCAGAAGCGUUCGCGUCGCGGCCCGUGUCAGAUUCUGGUGAAUCUGCGAAUUCUGCUGU	0.336
GGGGGCCACAGCAGAAGCGUUCGCGUCGCGGCCUCUGUCAGAUUCUGGUGAAUCUGCGAAUUCUGCUGU	0.932
GGGGGCCACAGCAGAAGCGUUCGCGUCGCGGCCACUGUCAGAUUCUGGUGAAUCUGCGAAUUCUGCUGU	0.627
GGGGGCCACAGCAGAAGCGUUCCCGUCGCGGCCCCUGUCAGAUUCUGGUGAACCUGCGAAUUCUGCUGU	0.915
GGGGGCCACAGCAGAAGCGUUCCCGUCGCGGCCCCUGUCAGAUUCUGGUGAAGCUGCGAAUUCUGCUGU	0.81
GGGGGCCACAGCAGAAGCGUUCCCGUCGCGGCCCCCGUCAGAUUCUGGUGAAUCUGCGAAUUCUGCUGU	0.679
GGGGGCCACAGCAGAAGCGUUCCCGUCGCGGCCCCUGUCAGAUUCUGGUGAAUCUGCCAAUUCUGCUGU	0.891
GGGGGCCACAGCAGAAGCGUUCGCGUCGCGGCCCCUGUCGGAUUCUGGUGAAUCUGCGAAUUCUGCUGU	0.992
GGGGGCCACAGCAGAAGCGUUCGCGUCGCGGCCCCUGUCCGAUUCUGGUGAAUCUGCGAAUUCUGCUGU	0.328
GGGGGCCACAGCAGAAGCGUUCGCGUCGAGGCCCCUGUCAGAUUCUGGUGAAUCUGCGAAUUCUGCUGU	0.401
GGGGGCCACAGCAGAAGCGUUCGCGUCGGGGCCCCUGUCAGAUUCUGGUGAAUCUGCGAAUUCUGCUGU	0.211
GGGGGCCACAGCAGAAGCGUUCCCGUCGCGGCCCCUGUCAUAUUCUGGUGAAUCUGCGAAUUCUGCUGU	0.815
GGGGGCCACAGCAGAAGCGUUCGCGUCGCGGCCCCUGUAAGAUUCUGGUGAAUCUGCGAAUUCUGCUGU	0.785
GGGGGCCACAGCAGAAGCGUUCCCGUCGCGGCCCCUGUCAGAUUCUGCUGAAUCUGCGAAUUCUGCUGU	0.924
GGGGGCCACAGCAGAAGCGUUCGCGUCGCGGCCCCUGUCAGAUUCUGGUGUAUCUGCGAAUUCUGCUGU	1
GGGGGCCACAGCAGAAGCGUUCCCGUCGCGGCCCCUGUCAGAUUCUGGUGAAUCUGCGAAUUCUGUUGU	0.94
GGGGGCCACAGCAGAAGCGUUCCCGUCGCGGCCCCUGUCAGAUUCUGGUGAAUCUGCGAAUUCUGAUGU	0.908
GGGGGCCACAGCAGAAGCGUUCGCGUAGCGGCCCCUGUCAGAUUCUGGUGAAUCUGCGAAUUCUGCUGU	0.303

Variant	self-cleavage
GGGGGCCACAGCAGAAGCGUUCGCGUUGCGGCCCCUGUCAGAUUCUGGUGAAUCUGCGAAUUCUGCUGU	0.222
GGGGGCCACAGCAGAAGCGUUCCCGUCGCGGCCCCUGGCAGAUUCUGGUGAAUCUGCGAAUUCUGCUGU	0.216
GGGGGCCACAGCAGAAGCGUUCCCGUCGCGGCCCCUGUCAGAUUCUGGUGAAUCUGUGAAUUCUGCUGU	0.406
GGGGGCCACAGCAGAAGCGUUCCCGUCGCGGCCCCUGUCAGAUUCUGGUGAAUCUGCGAAUUCCGCUGU	0.912
GGGGGCCACAGCAGAAGCGUUCCCGUCGCGGCCCCUGUCAGAUUCUGGUGAAUCUGCGAAUUCGGCUGU	0.878
GGGGGCCACAGCAGAAGCGUUCCCGUCGCGGCCCCUGUCAGAUUCUGGUGAAUCUGCGAAUUCUGCCGU	0.97
GGGGGCCACAGCAGAAGCGUUCCCGUCGCGGCCCCUGUCAGAUUCUGGUGAAUCUGCGAAUUCUGCAGU	0.988
GGGGGCCACAGCAGAAGCGUUCCCGUCGCCGCCCCUGUCAGAUUCUGGUGAAUCUGCGAAUUCUGCUGU	0.58
GGGGGCCACAGCAGAAGCGUUCCCGUCGCAGCCCCUGUCAGAUUCUGGUGAAUCUGCGAAUUCUGCUGU	0.743
GGGGGCCACAGCAGAAGCGUUCCCGUCGCGGCCCCUGUCAGAUUCUGGUGAAUCUGCGAAUUCUACUGU	0.764
GGGGGCCACAGCAGAAGCGUUCCCGUCGCGGCCCCUGUCAGAUUCUGGUGAAUCUGCGAAUUCUUCUGU	0.674
GGGGGCCACAGCAGAAGCGUUCCCGUCGCGGCCCCUGUCAGAUUCUGGUGAAUCUGCGAAUUCUCCUGU	0.535
GGGGGCCACAGCAGAAGCGUUCCCGUCGCGGCCCCUGUCAGAUCCUGGUGAAUCUGCGAAUUCUGCUGU	0.874
GGGGGCCACAGCAGAAGCGUUCGCGUCGCGGCCCCUGUCAGAUUCUGGUGAAUCUGCGCAUUCUGCUGU	0.699
GGGGGCCACAGCAGAAGCGUUCGCGUCGCGGCCCCUGUCAGAUUCUGGUGAAUCUGCGUAUUCUGCUGU	0.817
GGGGGCCACAGCAGAAGCGUUCCCGUCGCGGCCCCUGUCAGAUUCUGGUGAAUCUGCGAAUGCUGCUGU	0.853
GGGGGCCACAGCAGAAGCGUUCCCGUCGCGGCCCCUGUCAGAUUCUGGUGAAUCUGCGAAUCCUGCUGU	0.818
GGGGGCCACAGCAGAAGCGUUCCCGUCGCGGCCCCUGUCAGAUUCUGGUAAAUCUGCGAAUUCUGCUGU	0.946
GGGGGCCACAGCAGAAGCGUUCCCGUCGCGGCCCCUGUCAGAUUCUGGUCAAUCUGCGAAUUCUGCUGU	0.981
GGGGGCCACAGCAGAAGCGUUCCCGUCGCGGCCCCUGUCAGAUUCUGGUUAAUCUGCGAAUUCUGCUGU	0.953
GGGGGCCACAGCAGAAGCGUUCCCGUCGCGGCCCCUGUCAGAUUCUGGCGAAUCUGCGAAUUCUGCUGU	0.927
GGGGGCCACAGCAGAAGCGUUCCCGUCGCGGCCCCUGUCAGAUUCUGGAGAAUCUGCGAAUUCUGCUGU	0.951
GGGGGCCACAGCAGAAGCGUUCCCGUCGCGUCCCCUGUCAGAUUCUGGUGAAUCUGCGAAUUCUGCUGU	0.528
GGGGGCCACAGCAGAAGCGUUCCCGUCGCGCCCCCUGUCAGAUUCUGGUGAAUCUGCGAAUUCUGCUGU	0.186
GGGGGCCACAGCAGAAGCGUUCGCGUCGCGGACCCUGUCAGAUUCUGGUGAAUCUGCGAAUUCUGCUGU	0.436
GGGGGCCACAGCAGAAGCGUUCGCGUCGCGGUCCCUGUCAGAUUCUGGUGAAUCUGCGAAUUCUGCUGU	0.976
